Source: patent publication US12269859B2, “Synthetic immune receptors and methods of use thereof” (Angeles Therapeutics, Inc., priority 2016, dated 2025)

B1: 052316-D03 (protein)
chain: MALPVTALLLPLALLLHAARPDEIVLTQSPATLSLSPGERATLSCSASSSVSYMHWYQQKPGQAPRLLIYDTSKLASGIPARFSGSGSGTDFTLTISSLEPEDVAVYYCFQGSVYPFTFGQGTKLEIKRGGGGSGGGGSGGGGSQVQLQESGPGLVKPSQTLSLTCTVSGGSISTSGMGVGWIRQHPGKGLEWIGHIWWDDDKRYNPALKSRVTISVDTSKNQFSLKLSSVTAADTAVYYCARMELWSYYFDYWGQGTLVTVSSLEDLKNVFPPEVAVFEPSEAEISHTQKATLVCLATGFYPDHVELSWWVNGKEVHSGVSTDPQPLKEQPALNDSRYCLSSRLRVSATFWQNPRNHFRCQVQFYGLSENDEWTQDRAKPVTQIVSAEAWGRADCGFTSESYQQGVLSATILYEILLGKATLYAVLVSALVLMAMVKRKDSRGRAKRSGSGATNFSLLKQAGDVEENPGPTSMDWIWRILFLVGAATGAHSFEGSGTREQKLISEEDGSGIQNPDPAVYQLRDSKSSDKSVCLFTDFDSQTNVSQSKDSDVYITDKCVLDMRSMDFKSNSAVAWSNKSDFACANAFNNSIIPEDTFFPSPESSCDVKLVEKSFETDTNLNFQNLSVIGFRILLLKVAGFNLLMTLRLWSSRAKRSGSGVKQTLNFDLLKLAGDVESNPGPSRGHMTEYKPTVRLATRDDVPRAVRTLAAAFADYPATRHTVDPDRHIERVTELQELFLTRVGLDIGKVWVADDGAAVAVWTTPESVEAGAVFAEIGPRMAELSGSRLAAQQQMEGLLAPHRPKEPAWFLATVGVSPDHQGKGLGSAVVLPGVEAAERAGVPAFLETSAPRNLPFYERLGFTVTADVEVPEGPRTWCMTRKPGA
modifications: Synthetic Immune Receptor (SIR)
B2: 121515-X07 (protein)
chain: MALPVTALLLPLALLLHAARPLEGKPIPNPLLGLDSTGSGEDLKNVFPPEVAVFEPSKAEIAHTQKATLVCLATGFYPDHVELSWWVNGKEVHSGVCTDPQPLKEQPALNDSRYCLSSRLRVSATFWQNPRNHFRCQVQFYGLSENDEWTQDRAKPVTQIVSAEAWGRADCGITSASYHQGVLSATILYEILLGKATLYAVLVSALVLMAMVKRKDSRGRAKRSGSGATNFSLLKQAGDVEENPGPTSTMALPVTALLLPLALLLHAARPDEIVLTQSPATLSLSPGERATLSCSASSSVSYMHWYQQKPGQAPRLLIYDTSKLASGIPARFSGSGSGTDFTLTISSLEPEDVAVYYCFQGSVYPFTFGQGTKLEIKRGGGGSGGGGSGGGGSQVQLQESGPGLVKPSQTLSLTCTVSGGSISTSGMGVGWIRQHPGKGLEWIGHIWWDDDKRYNPALKSRVTISVDTSKNQFSLKLSSVTAADTAVYYCARMELWSYYFDYWGQGTLVTVSSTREQKLISEEDLGSGTPFPSLAPPIMLLVDGKQQMVVVCLVLDVAPPGLDSPIWFSAGNGSALDAFTYGPSPATDGTWTNLAHLSLPSEELASWEPLVCHTGPGAEGHSRSTQPMHLSGEASTARTCPQEPLRGTPGGALWLGVLRLLLFKLLLFDLLLTCSCLCDPAGPLPSPATTTRLRALGSHRLHPATETGGREATSSPRPQPRDRRWGDTPPGRKPGSPVRAKRSGSGVKQTLNFDLLKLAGDVESNPGPSRGHMTEYKPTVRLATRDDVPRAVRTLAAAFADYPATRHTVDPDRHIERVTELQELFLTRVGLDIGKVWVADDGAAVAVWTTPESVEAGAVFAEIGPRMAELSGSRLAAQQQMEGLLAPHRPKEPAWFLATVGVSPDHQGKGLGSAVVLPGVEAAERAGVPAFLETSAPRNLPFYERLGFTVTADVEVPEGPRTWCMTRKPGA
modifications: Synthetic Immune Receptor (SIR)
B3: 042916-D02 (protein)
chain: MALPVTALLLPLALLLHAARPLEGKPIPNPLLGLDSTGSGEDLKNVFPPEVAVFEPSKAEIAHTQKATLVCLATGFYPDHVELSWWVNGKEVHSGVCTDPQPLKEQPALNDSRYCLSSRLRVSATFWQNPRNHFRCQVQFYGLSENDEWTQDRAKPVTQIVSAEAWGRADCGITSASYHQGVLSATILYEILLGKATLYAVLVSALVLMAMVKRKDSRGRAKRSGSGATNFSLLKQAGDVEENPGPTSTMALPVTALLLPLALLLHAARPDVQMIQTPSSLSASLGDRVTISCRASQDIGNYLNWYQQKPDGTVKLLIYYTSRLHSGVPSRFSGSGSGTEYSLTISNLEQEDIATYFCQQGSALPPTFGGGTKLEINGGGGSGGGGSGGGGSALQLQQSGAELVRPGASVTLSCKASGYTFTDYEMHWVKQTPVHGLEWIGAIDPETGGTAYNQKFEGKAILTADKSSSTAYMELRSLTSEDSPVYYCARRRYYGSSSFDYWGQGTTLTVSSTREQKLISEEDGSGIQNPDPAVYQLRDSKSSDKSVCLFTDFDSQTNVSQSKDSDVYITDKCVLDMRSMDFKSNSAVAWSNKSDFACANAFNNSIIPEDTFFPSSDVPCDVKLVEKSFETDTNLNFQNLSVIGFRILLLKVAGFNLLMTLRLWSSRAKRSGSGVKQTLNFDLLKLAGDVESNPGPSRGHMTEYKPTVRLATRDDVPRAVRTLAAAFADYPATRHTVDPDRHIERVTELQELFLTRVGLDIGKVWVADDGAAVAVWTTPESVEAGAVFAEIGPRMAELSGSRLAAQQQMEGLLAPHRPKEPAWFLATVGVSPDHQGKGLGSAVVLPGVEAAERAGVPAFLETSAPRNLPFYERLGFTVTADVEVPEGPRTWCMTRKPGA
modifications: Synthetic Immune Receptor (SIR)
B4: 042916-C05 (protein)
chain: MALPVTALLLPLALLLHAARPLEGKPIPNPLLGLDSTGSGEDLKNVFPPEVAVFEPSKAEIAHTQKATLVCLATGFYPDHVELSWWVNGKEVHSGVCTDPQPLKEQPALNDSRYCLSSRLRVSATFWQNPRNHFRCQVQFYGLSENDEWTQDRAKPVTQIVSAEAWGRADCGITSASYHQGVLSATILYEILLGKATLYAVLVSALVLMAMVKRKDSRGRAKRSGSGATNFSLLKQAGDVEENPGPTSTMALPVTALLLPLALLLHAARPDVQMIQTPDSLAVSLGQRATISCRASESVDNYGISFMHWYQQKPGQSPKLLIYRASNLESGIPARFSGSGSRTDFTLTINPVETDDVATYYCQQNNKDPPTFGGGTKLEIKGGGGSGGGGSGGGGSGGGGSQVQLQQSGAELVKPGASVKISCKASGYAFSSYWMNWVKQRPGKGLEWIGQIYPGDGDTTYNGKFKGKATLTADKSSSTVYMQLNSLTSEDSAVYFCVRYYYGSSGYFDYWGQGTTLTVSSTREQKLISEEDGSGIQNPDPAVYQLRDSKSSDKSVCLFTDFDSQTNVSQSKDSDVYITDKCVLDMRSMDFKSNSAVAWSNKSDFACANAFNNSIIPEDTFFPSSDVPCDVKLVEKSFETDTNLNFQNLSVIGFRILLLKVAGFNLLMTLRLWSSRAKRSGSGVKQTLNFDLLKLAGDVESNPGPSRGHMTEYKPTVRLATRDDVPRAVRTLAAAFADYPATRHTVDPDRHIERVTELQELFLTRVGLDIGKVWVADDGAAVAVWTTPESVEAGAVFAEIGPRMAELSGSRLAAQQQMEGLLAPHRPKEPAWFLATVGVSPDHQGKGLGSAVVLPGVEAAERAGVPAFLETSAPRNLPFYERLGFTVTADVEVPEGPRTWCMTRKPGA
modifications: Synthetic Immune Receptor (SIR)

Test system: target antigen-expressing cell line
Assay: Jurkat NFAT-GFP assay, coculture with target cell lines expressing the respective target antigen (summary Table 10A)
Assay type: cell-based, human
Set-up: key: The signs +/−, +, 2+ etc. after the name of the cell lines indicate the relative degree of positivity on the Jurkat-NFAT-GFP assay as measured by the % GFP positive cells; +: relative degree of positivity on the Jurkat-NFAT-GFP assay as measured by the % GFP positive cells; 2+: relative degree of positivity on the Jurkat-NFAT-GFP assay as measured by the % GFP positive cells
Details: relative % GFP positive cells; for NFAT-GFP ASSAY Positive Cell lines: RAJI: SIR-expressing Jurkat-NFAT-GFP cells cocultured with RAJI; for NFAT-GFP ASSAY Positive Cell lines: LAN5: SIR-expressing Jurkat-NFAT-GFP cells cocultured with LAN5
Description: (B) Induction of NFAT promoter driven GFP expression. The control vector- and SIR-expressing Jurkat-NFAT-GFP cocultured for 4-24 hours with the target antigen-expressing cell line (described above) and their ability to bind to the target antigen is assayed by measuring induction of GFP expression using Flow Cytometry. Cellular supernatant is collected and assayed for the induction of cytokines (e.g., IL2).
Jurkat NFAT-GFP Assay For Synthetic Immune Receptors. The Jurkat-NFAT-GFP cells are engineered in such a way that the IL-2 promoter, which carries NFAT binding sites, is cloned upstream of the GFP gene. These cells have been used to study signaling via TCR and CAR. The different SIRs were stably expressed in Jurkat NFAT-GFP cells by lentiviral mediated gene transfer, followed by selection with puromycin. The SIR-expressing Jurkat-NFAT-GFP cells were cocultured with the target cells at E:T ratio of approximately 1:2 for approximately 4 hours to 18 hours. When the interaction between SIRs and their target antigen results in activation of the NFAT pathway, GFP expression is induced.
Induction of GFP expression by coculturing of Jurkat-NFAT-GFP cells expressing different SIR constructs and the different target cells was studied essentially as described previously (Wu, Roybal, Puchner, Onuffer, & Lim, 2015). GFP expression was monitored by FACS analysis. A few representative examples of this assay are shown in the FIG. 13A-B. In panel A, control Jurkat-NFAT-GFP cells or those expressing SIRs targeting CD19 (clone ID 051716-I08), MPL (Clone ID: 040716-A07) and BCMA (Clone ID: 011116-A07) were incubated with RAJI (top), HEL (middle) or U266 (bottom) cells, respectively. […] In panel B, Jurkat cells expressing SIR targeting CDH6 (Clone ID: 051716-J05), CD276 (Clone ID: 050516-Q06) and Her2/neu (Clone ID: 050516-I03) were incubated with SKOV3 (top) and […] (middle and bottom) cells, respectively. […] The Jurkat-NFAT-GFP cells were engineered to express different SIRs targeting other antigens and the experiment repeated upon coculture with the target cells expressing their respective target antigen. The Jurkat-NFAT-GFP (parental) cells were used as control. The names of different SIRs, their SEQ ID NOs, component antigen binding domains and TCR chains can be determined by reference to Tables 7A-7H. A SIR is considered positive in the assay in case the SIR expressing Jurkat-NFAT-GFP cells show greater % GFP positive cells when cultured with the target cell line as compared to parental Jurkat-NFAT-GFP cells. […] The signs +/−, +, 2+ etc. after the name of the cell lines indicate the relative degree of positivity on the Jurkat-NFAT-GFP assay as measured by the % GFP positive cells after culture of the SIR expressing Jurkat-NFAT-GFP cells with that cell line. […] In addition, great diversity of response against the same target cell line is observed with Jurkat cells expressing SIRs containing different antigen binding domains targeting the same antigen (e.g., SIRs having antigen binding domains derived form different CD19 antibodies) even when the SIRs share the same TCR chains and linkers. Finally, Jurkat cells expressing SIRs targeting different antigens (e.g. CD19 vs CD20) show a diversitiy of response when exposed to the same target cell line. Thus, a diverse immune response can be generated against a single target cell by combining SIRs with different TCR chains, linkers, antigen binding domains and target specificity. Table 10A also summarizes the results of GLuc based T cell cytotoxicity assay observed with different SIRs when exposed to their target cell lines. […]

Molecule | NFAT-GFP ASSAY Positive Cell lines: RAJI | NFAT-GFP ASSAY Positive Cell lines: LAN5
B1 | RAJI (+) | –
B2 | RAJI (+) | –
B3 | – | LAN5 (2+)
B4 | – | LAN5 (+/−)
